Measured values from patent publication US20040116653A1 (JARROW FORMULAS, published 2004).
Ends that are not written are not given here.

B1: synthetic soluble peptide corresponding to amino acids 51-74 of CD38 (CD3851-74) (peptide)
peptide: SGPGTTKRFPETVLARCVKYTEIH
modifications: also: biotin conjugated in ELISA, site not given here
B2: octameric branched peptide presenting the GPGTTK sequence (GPGTTK MBP) (peptide)
peptide 1: GPGTTK
peptide 2: GPGTTK
peptide 3: GPGTTK
peptide 4: GPGTTK
peptide 5: GPGTTK
peptide 6: GPGTTK
peptide 7: GPGTTK
peptide 8: GPGTTK
modifications: Each of the eight arms is bound through its C-terminus (Lys 6) to an 8-branching lysine core (Map resin), which cannot be written as a linear chain. The peptide was conjugated with biotin for the rshCD4 ELISA; the site is not stated.

Target: human CD4 on cells (MT-2, MT-4 cells; mouse SR.hCD4 cells transfected with human CD4) (human, UniProt P01730 26-458)
Experiment: cell-based or functional assay

Binder	EC50, inhibition of HIV-1IIIB replication in MT-4 cells (p24 ELISA, day 3)
B1	2.2 µM
B2	4.3 µM
